In publication PMC6572678, “Bulged and Canonical G-Quadruplex Conformations Determine NDPK Binding Specificity” one finds binding signal and Kd data, which are given here for 13 molecules.

The term Kd denotes the equilibrium constant for the complex coming apart.

For data set [1], the target named is T1, ZmNDPK1 (nucleoside diphosphate kinase 1, homolog of human NM23-H2) (Zea mays, UniProt B4FK49 1-149).
T1 sequence: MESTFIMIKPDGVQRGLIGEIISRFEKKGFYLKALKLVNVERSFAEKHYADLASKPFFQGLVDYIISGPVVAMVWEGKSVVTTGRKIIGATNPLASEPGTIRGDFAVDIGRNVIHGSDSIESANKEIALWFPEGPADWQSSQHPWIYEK
Description: competition; 100-fold excess vs hex4_A5U, 20 mM KCl; Filter binding: oligos annealed in 10 mM TBA phosphate pH 7.5 + 20 mM KCl, 60 min incubation; competition 1 nM FAM probe, 100 nM competitor, 5 nM protein. FRET: 10 mM TBA pH 7.5 + 100 mM KCl or LiCl, 1 h at 4 °C, 0-1000 nM protein. Conditions: protein: recombinant, chain copies: 6.

Data set [2] addresses T1, ZmNDPK1 (nucleoside diphosphate kinase …). The data set is described as follows: filter binding; 20 mM KCl; Filter binding: oligos annealed in 10 mM TBA phosphate pH 7.5 + 20 mM KCl, 60 min incubation; competition 1 nM FAM probe, 100 nM competitor, 5 nM protein. FRET: 10 mM TBA pH 7.5 + 100 mM KCl or LiCl, 1 h at 4 °C, 0-1000 nM protein. Conditions: protein: recombinant, chain copies: 6, label: 5' FAM (Kd).

For GGGTTTTGAATTGAGGATGAGGTAGGG (structured_DNA) [A5UCG], the binding signal in data set [1] (bulged G4, mixed by CD) was determined as 36 % competition. In the case of GGGTTTTGAAGGGATGAGGATTTAGGG (structured_DNA) [A5UAE], the Kd in data set [2] (bulged G4, anti-h by CD) is 194 nM. Further, in data set [1] (label: 5' FAM (Kd), bulged G4, anti-h by CD), the binding signal stood at 16 % competition. Consider GGGTTTTGAATTGAGGAGGAGTTAGGG (structured_DNA) [A5UCF], for which the binding signal in data set [1] (bulged G4, parallel) is 62 % competition. Regarding GGGTTTTGAAGGGATTATTAGGGAGGG (structured_DNA) [A5UAH (canonical; trim_AH)], in data set [2] (canonical G4, parallel), the Kd stood at 14.4 nM. In data set [1] (label: 5' FAM (Kd), canonical G4, parallel), the binding signal is 77 % competition. GGGTTTTGAAGGGAGGAGTATTTAGGG (structured_DNA) [A5UAD]: the binding signal in data set [1] (bulged G4, parallel) worked out at 73 % competition. Same read-out and setting: under GGGTTTTGAATTGAGGATTAGGGAGGG (structured_DNA) [A5UCH] stands 76 % competition.

Take GGGTTTTGAATTTATGAGGAGGGAGGG (structured_DNA) [A5UEH]: in data set [1] (bulged G4, parallel), the binding signal is 81 % competition. As for GGGTTTTGAAGGGATTATGAGGTAGGG (structured_DNA) [A5UAG], the binding signal in data set [1] (bulged G4, anti-h by CD) is 40 % competition. Turning to GGGTTTTGAATGGAGTATGAGGTAGGG (structured_DNA) [A5UBG], in data set [1] (bulged G4, anti-h by CD), the binding signal came out at 50 % competition. In the case of GGGTTTTGAATGGAGTAGGAGTTAGGG (structured_DNA) [A5UBF], in data set [1] (bulged G4, anti-h by CD), the binding signal was 23 % competition. With GGGTTTTGAATTTAGGAGTAGGGAGGG (structured_DNA) [A5UDH], the binding signal in data set [1] (bulged G4, parallel) was 77 % competition.

As for GGGTTTTGAAGGGATTAGGAGTTAGGG (structured_DNA) [A5UAF], the binding signal in data set [1] (bulged G4, anti-h by CD) worked out at 15 % competition. For GGGTTTTGAATGGAGTATTAGGGAGGG (structured_DNA) [A5UBH], the binding signal in data set [1] (bulged G4, parallel) is 85 % competition.
